Measurements published in US20120164688A1.

Columns and labels:
[1] = biological target: human nerve growth factor (NGF) (human) (UniProt P01138); experiment: BIACORE blocking; negative control, % free NGF bound to p75-hFc chip
[2] = biological target: human neurotrophin-3 (NT-3) (human) (UniProt P20783); experiment: BIACORE; 20 nM NT-3 + 500 nM agent, % NT-3 bound to TrkB-hFc chip (reference)
[3] = biological target: human neurotrophin-3 (NT-3) (human) (UniProt P20783); experiment: BIACORE; 20 nM NT-3 + 500 nM agent, % NT-3 bound to TrkA-hFc chip (reference)
[4] = biological target: human neurotrophin-3 (NT-3) (human) (UniProt P20783); experiment: BIACORE; 20 nM NT-3 + 500 nM agent, % NT-3 bound to p75-hFc chip (reference)
[5] = biological target: human nerve growth factor (NGF) (human) (UniProt P01138); experiment: BIACORE blocking; negative control, % free NGF bound to TrkA-hFc chip
[6] = biological target: human neurotrophin-3 (NT-3) (human) (UniProt P20783); experiment: BIACORE; 20 nM NT-3 + 500 nM agent, % NT-3 bound to TrkC-hFc chip (reference)
[7] = biological target: human neurotrophin-3 (NT-3) (human) (UniProt P20783); experiment: BIACORE; 20 nM NT-3 + 500 nM agent, % NT-3 bound to TrkC-hFc chip
[8] = biological target: human neurotrophin-3 (NT-3) (human) (UniProt P20783); experiment: BIACORE SPR; mAb captured, 20 nM NT-3
[9] = biological target: human nerve growth factor (NGF) (human) (UniProt P01138); experiment: BIACORE SPR; mAb captured, human NGF injected
[10] = biological target: human neurotrophin-3 (NT-3) (human) (UniProt P20783); experiment: BIACORE; 20 nM NT-3 + 500 nM agent, % NT-3 bound to p75-hFc chip
[11] = biological target: human nerve growth factor (NGF) (human) (UniProt P01138); experiment: BIACORE blocking; % free NGF bound to p75-hFc chip
[12] = biological target: human nerve growth factor (NGF) (human) (UniProt P01138); experiment: cell-based or functional assay
[13] = biological target: human neurotrophin-3 (NT-3) (human) (UniProt P20783); experiment: cell-based or functional assay
[14] = biological target: human neurotrophin-3 (NT-3) (human) (UniProt P20783); experiment: BIACORE; 20 nM NT-3 + 500 nM agent, % NT-3 bound to TrkB-hFc chip
mouse NGF (mNGF) (mouse) [15] = biological target: mouse NGF (mNGF) (mouse) (UniProt P01139); experiment: BIACORE SPR
[16] = biological target: human nerve growth factor (NGF) (human) (UniProt P01138); experiment: BIACORE SPR
rat NGF (rNGF) (rat) [17] = biological target: rat NGF (rNGF) (rat) (UniProt P25427); experiment: BIACORE SPR
[18] = biological target: human neurotrophin-3 (NT-3) (human) (UniProt P20783); experiment: BIACORE; 20 nM NT-3 + 500 nM agent, % NT-3 bound to TrkA-hFc chip
mouse NGF (mNGF) (mouse) [19] = biological target: mouse NGF (mNGF) (mouse) (UniProt P01139); experiment: BIACORE SPR; purified mAb
[20] = biological target: human nerve growth factor (NGF) (human) (UniProt P01138); experiment: BIACORE SPR; purified mAb
rat NGF (rNGF) (rat) [21] = biological target: rat NGF (rNGF) (rat) (UniProt P25427); experiment: BIACORE SPR; purified mAb
[22] = biological target: human nerve growth factor (NGF) (human) (UniProt P01138); experiment: BIACORE blocking; % free NGF bound to TrkA-hFc chip
[23] = biological target: human nerve growth factor (NGF) (human) (UniProt P01138); experiment: BIACORE SPR; mAb captured, 20 nM NGF
[24] = biological target: human neurotrophin-3 (NT-3) (human) (UniProt P20783); experiment: BIACORE SPR; NT-3 1.25 nM to 40 nM
[25] = biological target: human nerve growth factor (NGF) (human) (UniProt P01138); experiment: BIACORE SPR; complex dissociation half-life

human neurotrophin-3 (NT-3) (human), sequence (P20783 139-257 limits assumed): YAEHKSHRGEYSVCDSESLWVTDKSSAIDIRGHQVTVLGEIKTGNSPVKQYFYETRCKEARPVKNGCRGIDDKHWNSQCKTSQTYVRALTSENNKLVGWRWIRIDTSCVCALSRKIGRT
human nerve growth factor (NGF) (human), sequence (P01138 122-241 limits assumed): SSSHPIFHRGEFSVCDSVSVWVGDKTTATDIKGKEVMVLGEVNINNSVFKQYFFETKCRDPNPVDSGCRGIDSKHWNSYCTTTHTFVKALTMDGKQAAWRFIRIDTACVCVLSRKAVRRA
rat NGF (rNGF) (rat), sequence (P25427 122-241 limits assumed): as the sequence (P01138 122-241 limits assumed) above, with S3T, I6V, R9M, M37T, D60A, D65E, M92T, G94D, V117A, A120G counted along it
mouse NGF (mNGF) (mouse), sequence (P01139 122-241 limits assumed): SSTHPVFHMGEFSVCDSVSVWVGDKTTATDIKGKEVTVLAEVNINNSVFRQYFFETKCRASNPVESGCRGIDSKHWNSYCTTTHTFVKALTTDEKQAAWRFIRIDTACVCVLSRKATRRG

## IgG1 control (AVASTIN®; Genentech, CA) (antibody)
[1]
  % Binding p75-hFc: 116%
[2]
  % binding: 100%
[3]
  % binding: 100%
[4]
  % binding: 100%
[5]
  % Binding TrkA-hFc: 116%
[6]
  % binding: 100%

## humanized anti-human NGF monoclonal antibody E3 ("RN624") (tanezumab; CAS Registry No. 880266-57-9)
[7]
  % binding: 8%
[8]
  Kd: 1.1 nM
[9]
  Kd: 1.3 pM
[10]
  % binding: 19%
[11]
  % Binding p75-hFc: 16%
[12]
  IC50 (pM), PC12 SRE-luciferase: 4.9 pM
  MG87 IC50: < 0.186 nM
  PC12 IC50: 0.021 nM
[13]
  IC50, HEK293-TrkC SRE-luciferase: 150 to 200 nM
  IC50, PC12 SRE-luciferase with 75 nM NT-3: 105 nM
[14]
  % binding: 8%
Mouse NGF (mNGF) (mouse) [15]
  Kd: 1.4 pM
[16]
  Kd: 1.25 pM
Rat NGF (rNGF) (rat) [17]
  Kd: 1.5 pM
[18]
  % binding: 7%
Mouse NGF (mNGF) (mouse) [19]
  Kd: 1.4 pM
[20]
  Kd: 1.25 pM
  t1/2: 35 h
Rat NGF (rNGF) (rat) [21]
  Kd: 1.51 pM
[22]
  % Binding TrkA-hFc: 10%
[23]
  Kd: 1.3 pM
[24]
  Kd: 1.1 nM
[25]
  t1/2: 35 h
